Sequences and labels used below:
T1: PUF4 RNA-binding domain (Saccharomyces cerevisiae, UniProt P25339 537-888)
T1 sequence: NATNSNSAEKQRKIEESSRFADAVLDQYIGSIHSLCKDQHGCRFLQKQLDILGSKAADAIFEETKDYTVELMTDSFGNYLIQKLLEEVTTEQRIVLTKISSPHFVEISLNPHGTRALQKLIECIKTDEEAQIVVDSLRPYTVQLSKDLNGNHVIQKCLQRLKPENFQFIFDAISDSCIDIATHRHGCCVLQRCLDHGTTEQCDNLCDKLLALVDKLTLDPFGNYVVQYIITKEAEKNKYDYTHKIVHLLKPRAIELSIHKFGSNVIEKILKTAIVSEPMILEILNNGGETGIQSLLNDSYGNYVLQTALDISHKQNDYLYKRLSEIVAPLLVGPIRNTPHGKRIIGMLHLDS

B1: Ic_S4_P4E.1_K4.1_C4.1_H4.1_A4.1_[A6C]_F4.1_[T8C]_[A9C]_T4.1 (ssRNA)
RNA: UUUGACAACUGAUCGUUCUUUCUUGUAUCUCCUUCUUUCUCGAUCAGUUGUCUUU
B2: Ic_S4_P4E.1_K4.1_C4.1_H4.1_A4.1_[A6T]_[T7C]_F4.1_[T8C]_[A9G]_T4.1 (ssRNA)
RNA: UUUGACAACUGAUCGUUCUUUCUUGUAUUCCGUUCUUUCUCGAUCAGUUGUCUUU
B3: Ic_S4_P4E.1_K4.1_C4.1_H4.1_A4.1_[A6T]_[T7G]_F4.1_[A9G]_T4.1 (ssRNA)
RNA: UUUGACAACUGAUCGUUCUUUCUUGUAUUGUGUUCUUUCUCGAUCAGUUGUCUUU
B4: Ic_S4_P4E.1_K4.1_C4.1_H4.1_A4.1_[A6T]_[T7C]_F4.1_[T8C]_[A9T]_T4.1 (ssRNA)
RNA: UUUGACAACUGAUCGUUCUUUCUUGUAUUCCUUUCUUUCUCGAUCAGUUGUCUUU
B5: Ic_S4_P4E.1_K4.1_C4.1_H4.1_A4.1_[A6T]_F4.1_[T8G]_[A9G]_T4.1 (ssRNA)
RNA: UUUGACAACUGAUCGUUCUUUCUUGUAUUUGGUUCUUUCUCGAUCAGUUGUCUUU
B6: Ic_S4_P4E.1_K4.1_C4.1_H4.1_A4.1_[A6T]_[T7G]_F4.1_[T8C]_[A9C]_T4.1 (ssRNA)
RNA: UUUGACAACUGAUCGUUCUUUCUUGUAUUGCCUUCUUUCUCGAUCAGUUGUCUUU
B7: Ic_S4_P4E.1_K4.1_C4.1_H4.1_A4.1_[T7A]_F4.1_[A9T]_T4.1 (ssRNA)
RNA: UUUGACAACUGAUCGUUCUUUCUUGUAUAAUUUUCUUUCUCGAUCAGUUGUCUUU
B8: Ic_S4_P4E.1_K4.1_C4.1_H4.1_A4.1_[A6T]_F4.1_[T8C]_[A9C]_T4.1 (ssRNA)
RNA: UUUGACAACUGAUCGUUCUUUCUUGUAUUUCCUUCUUUCUCGAUCAGUUGUCUUU
B9: Ic_S4_P4E.1_K4.1_C4.1_H4.1_A4.1_[A6T]_[T7G]_F4.1_[T8C]_[A9G]_T4.1 (ssRNA)
RNA: UUUGACAACUGAUCGUUCUUUCUUGUAUUGCGUUCUUUCUCGAUCAGUUGUCUUU
B10: Ic_S4_P4E.1_K4.1_C4.1_H4.1_A4.1_[A6T]_[T7A]_F4.1_[T8C]_T4.1 (ssRNA)
RNA: UUUGACAACUGAUCGUUCUUUCUUGUAUUACAUUCUUUCUCGAUCAGUUGUCUUU
B11: Ic_S4_P4E.1_K4.1_C4.1_H4.1_A4.1_[T7A]_F4.1_[T8C]_[A9G]_T4.1 (ssRNA)
RNA: UUUGACAACUGAUCGUUCUUUCUUGUAUAACGUUCUUUCUCGAUCAGUUGUCUUU
B12: Ic_S4_P4E.1_K4.1_C4.1_H4.1_A4.1_[T7G]_F4.1_[T8C]_[A9T]_T4.1 (ssRNA)
RNA: UUUGACAACUGAUCGUUCUUUCUUGUAUAGCUUUCUUUCUCGAUCAGUUGUCUUU
B13: Ic_S4_P4E.1_K4.1_C4.1_H4.1_A4.1_[A6T]_[T7C]_F4.1_[A9G]_T4.1 (ssRNA)
RNA: UUUGACAACUGAUCGUUCUUUCUUGUAUUCUGUUCUUUCUCGAUCAGUUGUCUUU
B14: Ic_S4_P4E.1_K4.1_C4.1_H4.1_A4.1_[A6T]_F4.1_[A9T]_T4.1 (ssRNA)
RNA: UUUGACAACUGAUCGUUCUUUCUUGUAUUUUUUUCUUUCUCGAUCAGUUGUCUUU
B15: Ic_S4_P4E.1_K4.1_C4.1_H4.1_A4.1_[A6T]_F4.1_[T8G]_[A9T]_T4.1 (ssRNA)
RNA: UUUGACAACUGAUCGUUCUUUCUUGUAUUUGUUUCUUUCUCGAUCAGUUGUCUUU
B16: Ic_S4_P4E.1_K4.1_C4.1_H4.1_A4.1_[A6C]_F4.1_[T8A]_[A9C]_T4.1 (ssRNA)
RNA: UUUGACAACUGAUCGUUCUUUCUUGUAUCUACUUCUUUCUCGAUCAGUUGUCUUU
B17: Ic_S4_P4E.1_K4.1_C4.1_H4.1_A4.1_[A6T]_[T7C]_F4.1_[A9T]_T4.1 (ssRNA)
RNA: UUUGACAACUGAUCGUUCUUUCUUGUAUUCUUUUCUUUCUCGAUCAGUUGUCUUU
B18: Ic_S4_P4E.1_K4.1_C4.1_H4.1_A4.1_[A6C]_F4.1_[T8A]_[A9G]_T4.1 (ssRNA)
RNA: UUUGACAACUGAUCGUUCUUUCUUGUAUCUAGUUCUUUCUCGAUCAGUUGUCUUU
B19: Ic_S4_P4E.1_K4.1_C4.1_H4.1_A4.1_[A6T]_[T7G]_F4.1_[T8G]_[A9T]_T4.1 (ssRNA)
RNA: UUUGACAACUGAUCGUUCUUUCUUGUAUUGGUUUCUUUCUCGAUCAGUUGUCUUU
B20: Ic_S4_P4E.1_K4.1_C4.1_H4.1_A4.1_[A6C]_F4.1_[T8C]_[A9T]_T4.1 (ssRNA)
RNA: UUUGACAACUGAUCGUUCUUUCUUGUAUCUCUUUCUUUCUCGAUCAGUUGUCUUU
B21: Ic_S4_P4E.1_K4.1_C4.1_H4.1_A4.1_[A6T]_F4.1_[T8A]_T4.1 (ssRNA)
RNA: UUUGACAACUGAUCGUUCUUUCUUGUAUUUAAUUCUUUCUCGAUCAGUUGUCUUU
B22: Ic_S4_P4E.1_K4.1_C4.1_H4.1_A4.1_[A6T]_[T7A]_F4.1_[T8C]_[A9C]_T4.1 (ssRNA)
RNA: UUUGACAACUGAUCGUUCUUUCUUGUAUUACCUUCUUUCUCGAUCAGUUGUCUUU
B23: Ic_S4_P4E.1_K4.1_C4.1_H4.1_A4.1_[T7C]_F4.1_[T8G]_[A9T]_T4.1 (ssRNA)
RNA: UUUGACAACUGAUCGUUCUUUCUUGUAUACGUUUCUUUCUCGAUCAGUUGUCUUU
B24: Ic_S4_P4E.1_K4.1_C4.1_H4.1_A4.1_[T7C]_F4.1_[T8A]_[A9C]_T4.1 (ssRNA)
RNA: UUUGACAACUGAUCGUUCUUUCUUGUAUACACUUCUUUCUCGAUCAGUUGUCUUU
B25: Ic_S4_P4E.1_K4.1_C4.1_H4.1_A4.1_[A6T]_[T7A]_F4.1_[T8G]_[A9C]_T4.1 (ssRNA)
RNA: UUUGACAACUGAUCGUUCUUUCUUGUAUUAGCUUCUUUCUCGAUCAGUUGUCUUU
B26: Ic_S4_P4E.1_K4.1_C4.1_H4.1_A4.1_[A6T]_[T7C]_F4.1_[T8A]_[A9T]_T4.1 (ssRNA)
RNA: UUUGACAACUGAUCGUUCUUUCUUGUAUUCAUUUCUUUCUCGAUCAGUUGUCUUU
B27: Ic_S4_P4E.1_K4.1_C4.1_H4.1_A4.1_[A6T]_[T7C]_F4.1_[T8A]_[A9C]_T4.1 (ssRNA)
RNA: UUUGACAACUGAUCGUUCUUUCUUGUAUUCACUUCUUUCUCGAUCAGUUGUCUUU
B28: Ic_S4_P4E.1_K4.1_C4.1_H4.1_A4.1_[T7G]_F4.1_[T8C]_[A9C]_T4.1 (ssRNA)
RNA: UUUGACAACUGAUCGUUCUUUCUUGUAUAGCCUUCUUUCUCGAUCAGUUGUCUUU
B29: Ic_S4_P4E.1_K4.1_C4.1_H4.1_A4.1_[A6T]_[T7C]_F4.1_[T8G]_[A9C]_T4.1 (ssRNA)
RNA: UUUGACAACUGAUCGUUCUUUCUUGUAUUCGCUUCUUUCUCGAUCAGUUGUCUUU
B30: Ic_S4_P4E.1_K4.1_C4.1_H4.1_A4.1_[A6T]_[T7A]_F4.1_[A9C]_T4.1 (ssRNA)
RNA: UUUGACAACUGAUCGUUCUUUCUUGUAUUAUCUUCUUUCUCGAUCAGUUGUCUUU
B31: Ic_S4_P4E.1_K4.1_C4.1_H4.1_A4.1_[A6T]_[T7C]_F4.1_[A9C]_T4.1 (ssRNA)
RNA: UUUGACAACUGAUCGUUCUUUCUUGUAUUCUCUUCUUUCUCGAUCAGUUGUCUUU
B32: Ic_S4_P4E.1_K4.1_C4.1_H4.1_A4.1_[A6T]_[T7A]_F4.1_[T8A]_[A9T]_T4.1 (ssRNA)
RNA: UUUGACAACUGAUCGUUCUUUCUUGUAUUAAUUUCUUUCUCGAUCAGUUGUCUUU

One may read the Kd as the free concentration of one partner at which half of the binding sites on the other are occupied at equilibrium, for simple one-to-one binding.

The series concerns the target T1, PUF4 RNA-binding domain. As to the kind of experiment: Mg; RNA-MaP; 20 mM Na-HEPES pH 7.4, 30 mM KOAc, 0.75 mM MgCl2, 0.1% Tween-20, 5% glycerol, 0.1 mg/mL BSA, 2 mM DTT; 25 C; 0.0125-409.6 nM protein. The settings on record: tags: N-His6-TEV cleaved; C-SNAP kept, Cy3B-labelled; label: tethered on chip by stalled RNA polymerase.
Take UCUCUUUGUAUACAAUCUCUU (ssRNA) [Ib_S1_P4E.1_K4.1_C4.1_H4.1_A4.1_[T7C]_F4.1_[T8A]_T4.1]: the Kd is 0.0448 µM.

In turn, UCUCUUUGUAUAAAAUCUCUU (ssRNA) [Ib_S1_P4E.1_K4.1_C4.1_H4.1_A4.1_[T7A]_F4.1_[T8A]_T4.1] had a Kd of 0.0221 µM. Against the preceding molecule, the Kd is about 2-fold lower.

In the case of UCUCUUUGUUUAUUAUCUCUU (ssRNA) [Ia_S1_P4E.1_K4.1_C4.1_H4.1_[A4T]_A4.1_F4.1_T4.1], the Kd was determined as 0.0115 µM.

Regarding UCUCUUUGUACAUUGUCUCUU (ssRNA) [Ic_S1_P4E.1_K4.1_C4.1_H4.1_A4.1_[T5C]_F4.1_[A9G]_T4.1], the affinity, expressed as Kd, was 0.00375 µM.

In the case of B1, binding was characterised by a dissociation constant (Kd) of 0.0315 µM. Against the preceding molecule, the Kd is about 8.4-fold higher.

The molecule B2 came in with a Kd of 0.159 µM.

Molecule B3 displayed a Kd of 0.0751 µM.

As for B4, the Kd is 0.0619 µM.

On to B5, for which binding was put at a Kd of 0.23 µM.

B6 gave a Kd of 0.537 µM.

B7 had a Kd of 0.0102 µM.

As to B8, the Kd worked out at 0.0745 µM.

In turn, B9 had a Kd of 0.593 µM.

For the molecule B10, binding was put at a Kd of 0.436 µM.

In turn, B11 returned a Kd of 0.0404 µM.

Molecule B12 returned a Kd of 0.0495 µM.

In turn, B13 yielded a Kd of 0.0204 µM.

On to B14, for which the Kd stood at 0.0121 µM.

Molecule B15 registered a Kd of 0.0461 µM.

B16 came in with a Kd of 0.0341 µM.

As for B17, the Kd was 0.0278 µM.

Molecule B18 showed a Kd of 0.0404 µM. This Kd and that of the molecule before are within 1.5-fold of each other.

Molecule B19 came in with a Kd of 1.31 µM.

The molecule B20 yielded a Kd of 0.0167 µM.

B21 displayed a Kd of 0.0211 µM.

For the molecule B22, the affinity, expressed as Kd, was 0.191 µM.

In turn, B23 registered a Kd of 0.0275 µM.

In turn, B24 gave a Kd of 0.0511 µM.

In the case of B25, the Kd came out at 0.794 µM. Against the preceding molecule, the Kd is about 16-fold higher.

For the molecule B26, the Kd came to 0.113 µM.

B27 yielded a Kd of 0.425 µM. This Kd lies about 3.8-fold higher than the previous one.

Regarding B28, the Kd was found to be 0.0873 µM.

Regarding B29, binding was put at a Kd of 0.417 µM.

For the molecule B30, the affinity, expressed as Kd, was 0.0383 µM.

Molecule B31 yielded a Kd of 0.0344 µM.

Take B32: binding was put at a Kd of 0.095 µM.
